Changes are numbered by the printed parent chain.
B1: PGT-128 (antibody, V domains shown)
VH: QPQLQESGPTLVEASETLSLTCAVSGDSTAACNSFWGWVRQPPGKGLEWVGSLSHCASYWNRGWTYHNPSLKSRLTLALDTPKNLVFLKLNSVTAADTATYYCARFGGEVLRYTDWPKPAWVDLWGRGTLVTVSS
VL: QSALTQPPSASGSPGQSITISCTGTSNNFVSWYQQHAGKAPKLVIYDVNKRPSGVPDRFSGSKSGNTASLTVSGLQTDDEAVYYCGSLVGNWDVIFGGGTKLTVL
B2: PGT-125 (antibody, V domains shown)
VH: QSQLQESGPRLVEASETLSLTCNVSGESTGACTYFWGWVRQAPGKGLEWIGSLSHCQSFWGSGWTFHNPSLKSRLTISLDTPKNQVFLKLTSLTAADTATYYCARFDGEVLVYNHWPKPAWVDLWGRGIPVTVSS
VL: QSALTQPPSASGSPGQSITISCNGTATNFVSWYQQFPDKAPKLIIFGVDKRPPGVPDRFSGSRSGTTASLTVSRLQTDDEAVYYCGSLVGNWDVIFGGGTTLTVL
B3: PGT-126 (antibody, V domains shown)
VH: QPQLQESGPGLVEASETLSLTCTVSGDSTAACDYFWGWVRQPPGKGLEWIGGLSHCAGYYNTGWTYHNPSLKSRLTISLDTPKNQVFLKLNSVTAADTAIYYCARFDGEVLVYHDWPKPAWVDLWGRGTLVTVSS
VL: B1 VL with T19S, N28R, A37P, D47G, G86S

Target: JR-FL gp120 ΔV3 (HIV-1 (isolate JR-FL))
Test: ELISA on coated gp120; EC50 by nonlinear regression

B1 showed an EC50 of 7.8 µg/mL.

Target: HIV-1 92RW020 envelope glycoprotein (Env) (HIV-1)
Test: cell-based or functional assay

Going from B2 to B3, the IC50 neutralization rises from 0.0028 µg/mL to 0.0046 µg/mL (1.6-fold).

Target: HIV-1 Env of isolate MGRM-A-007 (HIV-1)
Test: cell-based or functional assay

B2 and B3 cannot be ordered by IC50 (µg/mL), pseudovirus neutralization: over 50 µg/mL for the first, over 50 µg/mL for the second.

Target: HIV-1 Env of isolate 92WR024 (HIV-1)
Test: cell-based or functional assay

B2 and B3 are within 1.5-fold of each other in IC50 (µg/mL), pseudovirus neutralization: 35.5 µg/mL for the first, 42 µg/mL for the second.

Target: HIV-1 Env of isolate MGRM-A-003 (HIV-1)
Test: cell-based or functional assay

B2 and B3 cannot be ordered by IC50 (µg/mL), pseudovirus neutralization: over 50 µg/mL for the first, over 50 µg/mL for the second.

Target: HIV-1 93UG077 envelope glycoprotein (Env) (HIV-1)
Test: cell-based or functional assay

B2 and B3 are within 1.5-fold of each other in IC50 neutralization: 0.0262 µg/mL for the first, 0.0256 µg/mL for the second.

Target: HIV-1 Env of isolate 92UG031 (HIV-1)
Test: cell-based or functional assay

B2 and B3 cannot be ordered by IC50 (µg/mL), pseudovirus neutralization: over 50 µg/mL for the first, over 50 µg/mL for the second.

Target: HIV-1 Env of isolate MGRM-A-014 (HIV-1)
Test: cell-based or functional assay

First: B2
Second: B3
The IC50 (µg/mL), pseudovirus neutralization of the first is 1400-fold higher: 13.9 µg/mL for the first, 0.01 µg/mL for the second.

Target: HIV-1 Env of isolate MGRM-A-012 (HIV-1)
Test: cell-based or functional assay

Going from B2 to B3, the IC50 (µg/mL), pseudovirus neutralization falls from 0.177 µg/mL to 0.097 µg/mL (1.8-fold).

Target: HIV-1 MGRM-C-027 envelope glycoprotein (Env) (HIV-1)
Test: cell-based or functional assay

First: B2
Second: B3
The IC50 neutralization of the first is higher: over 10 µg/mL for the first, 1.14 µg/mL for the second.

Target: HIV-1 Env of isolate MGRM-A-005 (HIV-1)
Test: cell-based or functional assay

B2 and B3 cannot be ordered by IC50 (µg/mL), pseudovirus neutralization: over 50 µg/mL for the first, over 50 µg/mL for the second.

Target: HIV-1 Env of isolate MGRM-A-011 (HIV-1)
Test: cell-based or functional assay

B2 and B3 cannot be ordered by IC50 (µg/mL), pseudovirus neutralization: over 50 µg/mL for the first, over 50 µg/mL for the second.

Target: HIV-1 Env of isolate MGRM-AE-001 (HIV-1)
Test: cell-based or functional assay

First: B2
Second: B3
The IC50 (µg/mL), pseudovirus neutralization of the first is 3.3-fold lower: 2.95 µg/mL for the first, 9.68 µg/mL for the second.

Target: HIV-1 Env of isolate MGRM-A-010 (HIV-1)
Test: cell-based or functional assay

Going from B2 to B3, the IC50 (µg/mL), pseudovirus neutralization falls from 0.004 µg/mL to 0.002 µg/mL (2-fold).

Target: HIV-1 MGRM-C-026 envelope glycoprotein (Env) (HIV-1)
Test: cell-based or functional assay

B2 and B3 are within 1.5-fold of each other in IC50 neutralization: 0.0106 µg/mL for the first, 0.0076 µg/mL for the second.

Target: HIV-1 Env of isolate MGRM-A-001 (HIV-1)
Test: cell-based or functional assay

Going from B2 to B3, the IC50 (µg/mL), pseudovirus neutralization rises from 12.4 µg/mL to over 50 µg/mL.

Target: HIV-1 Env of isolate VLGCA1 (HIV-1)
Test: cell-based or functional assay

Compared with B2, B3 is higher in IC50 (µg/mL), pseudovirus neutralization: 0.078 µg/mL for the first, over 50 µg/mL for the second.

Target: HIV-1 Env of isolate 93WR029 (HIV-1)
Test: cell-based or functional assay

B2 and B3 cannot be ordered by IC50 (µg/mL), pseudovirus neutralization: over 50 µg/mL for the first, over 50 µg/mL for the second.

Target: HIV-1 Env of isolate 92WR009 (HIV-1)
Test: cell-based or functional assay

Compared with B2, B3 is higher in IC50 (µg/mL), pseudovirus neutralization: 0.144 µg/mL for the first, over 50 µg/mL for the second.

Target: HIV-1 93IN905 envelope glycoprotein (Env) (HIV-1)
Test: cell-based or functional assay

B2 and B3 are within 1.5-fold of each other in IC50 neutralization: 0.0137 µg/mL for the first, 0.0194 µg/mL for the second.

Target: HIV-1 Env of isolate 92UG037 (HIV-1)
Test: cell-based or functional assay

Going from B2 to B3, the IC50 (µg/mL), pseudovirus neutralization rises from 0.005 µg/mL to 0.011 µg/mL (2.2-fold).

Target: HIV-1 JR-CSF Env G324A (HIV-1 isolate JR-CSF) (UniProt P20871)
Test: cell-based or functional assay

Going from B2 to B3, the Fold IC50 increase relative to wild-type rises from 1.7 fold to 3.3 fold.

Target: HIV-1 Env of isolate 92WR026 (HIV-1)
Test: cell-based or functional assay

B2 and B3 are within 1.5-fold of each other in IC50 (µg/mL), pseudovirus neutralization: 0.007 µg/mL for the first, 0.008 µg/mL for the second.

Target: HIV-1 94UG103 envelope glycoprotein (Env) (HIV-1)
Test: cell-based or functional assay

B2 and B3 are within 1.5-fold of each other in IC50 neutralization: 0.0124 µg/mL for the first, 0.0091 µg/mL for the second.

Target: HIV-1 Env of isolate MGRM-A-002 (HIV-1)
Test: cell-based or functional assay

B2 and B3 are within 1.5-fold of each other in IC50 (µg/mL), pseudovirus neutralization: 0.013 µg/mL for the first, 0.015 µg/mL for the second.

Target: HIV-1 APV6 envelope glycoprotein (Env) (HIV-1)
Test: cell-based or functional assay

B2 and B3 are within 1.5-fold of each other in IC50 neutralization: 0.0359 µg/mL for the first, 0.0249 µg/mL for the second.

Target: HIV-1 Env of isolate 94KE105 (HIV-1)
Test: cell-based or functional assay

Going from B2 to B3, the IC50 (µg/mL), pseudovirus neutralization rises from 0.004 µg/mL to 0.006 µg/mL (1.5-fold).

Target: HIV-1 Env of isolate 94UG103 (HIV-1)
Test: cell-based or functional assay

B2 and B3 are the same in IC50 (µg/mL), pseudovirus neutralization: 0.008 µg/mL for the first, 0.008 µg/mL for the second.

Target: HIV-1 Env of isolate MGRM-A-009 (HIV-1)
Test: cell-based or functional assay

Compared with B2, B3 is 2.2-fold lower in IC50 (µg/mL), pseudovirus neutralization: 0.009 µg/mL for the first, 0.004 µg/mL for the second.

Target: HIV-1 APV13 envelope glycoprotein (Env) (HIV-1)
Test: cell-based or functional assay

B2 and B3 are within 1.5-fold of each other in IC50 neutralization: 0.0128 µg/mL for the first, 0.012 µg/mL for the second.

Target: HIV-1 MGRM-C-028 envelope glycoprotein (Env) (HIV-1)
Test: cell-based or functional assay

First: B2
Second: B3
The IC50 neutralization of the first is 20-fold higher: 5.78 µg/mL for the first, 0.283 µg/mL for the second.

Target: HIV-1 Env of isolate 92WR021 (HIV-1)
Test: cell-based or functional assay

B2 and B3 are within 1.5-fold of each other in IC50 (µg/mL), pseudovirus neutralization: 0.005 µg/mL for the first, 0.006 µg/mL for the second.

Target: HIV-1 APV17 envelope glycoprotein (Env) (HIV-1)
Test: cell-based or functional assay

First: B2
Second: B3
The IC50 neutralization of the first is 15-fold higher: 7.31 µg/mL for the first, 0.501 µg/mL for the second.

Target: HIV-1 Env of isolate MGRM-AE-003 (HIV-1)
Test: cell-based or functional assay

Going from B2 to B3, the IC50 (µg/mL), pseudovirus neutralization rises from 0.092 µg/mL to over 50 µg/mL.

Target: HIV-1 Env of isolate MGRM-A-013 (HIV-1)
Test: cell-based or functional assay

First: B2
Second: B3
The IC50 (µg/mL), pseudovirus neutralization of the first is 2.3-fold higher: 0.014 µg/mL for the first, 0.006 µg/mL for the second.

Target: Env of the clade AE HIV-1 pseudoviruses of the cross-clade 162-pseudovirus panel (n = 10)
Test: cell-based or functional assay

Going from B2 to B3, the Median IC50 against viruses neutralized with an IC50 <50 µg/ml rises from 0.03 µg/mL to 1.77 µg/mL (59-fold).

B1 was tested, and the Median IC50 against viruses neutralized with an IC50 <50 µg/ml was 0.05 µg/mL.

Target: HIV-1 92BR020 envelope glycoprotein (Env) (HIV-1)
Test: cell-based or functional assay

B2 and B3 are within 1.5-fold of each other in IC50 neutralization: 0.0214 µg/mL for the first, 0.0163 µg/mL for the second.

Target: HIV-1 Env of isolate MGRM-AE-002 (HIV-1)
Test: cell-based or functional assay

B2 and B3 cannot be ordered by IC50 (µg/mL), pseudovirus neutralization: over 50 µg/mL for the first, over 50 µg/mL for the second.

Reference: US20200024330A1
